Laboratory results: the nanobody polyreactivity screen of Harvey et al. (2022)

Test: yeast display, Sf9 membrane polyspecificity reagent, FACS + sequencing; frameworks hold sequencing errors
Outline: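 Using colony PCR, genes from sorted yeast display clones were amplified, then sequenced on MiSeq at 2 × 250 and filtered by CDR length. The clones had been stained with 10% biotinylated, detergent-solubilized Sf9 membrane reagent for 1 hour at 4 °C and sorted by FACS into low and high (top ~1%) gates on anti-HA and streptavidin fluorescence. Polyreactivity labels come from the gate of origin.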

## QVQLVESGGGLVQAGGSLRLSCAASGFTSAYNAMGWYRQAPGKERELVATISFRGSSTYYADSVKGRFTISRDNAKNTVYLQMNSQKPEDTAVYYCAADPYDARAVSEPVFFGHYDFWGQGTQVTVSS
  polyreactivity (PSR sort gate): low polyreactivity

## QVQLVESAGGLVQAGGSLRLSCAASGRTFKYYAMGWYRQAPGKERELVAAISRSGGSTYADSVKGRFTISRDNAKNTVYLQMNSLKPDETAVYYCAAYSGVGYLWFDYWGQGTQVTVSS
  polyreactivity (PSR sort gate): low polyreactivity

## QVQLVESGGGLVQAGGSLRLSCAASGRTFNYYNMGWYRQAPGKARELVAAISRGGTTYYADSVKGRFTISRDNAKKTVYLQMNSLKPEDTAVYYCAVAYAPRVQTVWSYVSGSTYYSSGQGTQVTVSS
  polyreactivity (PSR sort gate): high polyreactivity

## QVQLVESGGGLVQAGGSLRLSCAASGIIFPSYVMGWYRQAPGKERELVARISARGGRTYYADSVKGRFTISRDNAKNTVYLQMNSLKPEDTAVYYCAARWGITTWYDYWGQGTQVTVSS
  polyreactivity (PSR sort gate): high polyreactivity

## QVQLVESGGGLVQAGGSLRLSCAASGSTFAYYAMGWYRQAPGKERELVAAISVSGGRTYYADSVKGRFTISRDNAKNTVYLQMNSLKPEDTAVYYCAKRFIYGRYNYWGQGTQVTVSS
  polyreactivity (PSR sort gate): high polyreactivity

## QVQLVESGGGLVQAGGSLRLSCAASGSTFGDNAMGWYRQAPGKERELVATITWSDDSTYYADSVKGRFTISRDNAKNTVYLQMNSLKPEDTAFYYCAADVDSYLLIGAVEYDYWGHGTQVTVSS
  polyreactivity (PSR sort gate): low polyreactivity

## QVQLVESAGGLVQAGGSLRLSCAASGSNDTNAMGWYRQEPWKERELVADITSGTPTYADSVKGRFTISRDNAKNTVFLQMNSLKPEDTAVYYCAADIPPWCGDYWGQGTQVTVSS
  polyreactivity (PSR sort gate): low polyreactivity

## QVLLVESGGGLVQAGGSLRLSCAASRSIFEVNPMGWYRQAPGKERELVAAISCSGGSTYYADSVKGRFTISRDNAKNTVYLQMNSLKPEDTAVYYCAARQAGYSGRKLYYWGQGTQVTVSS
  polyreactivity (PSR sort gate): low polyreactivity

## QVQLVESGGGLVQAGGSLRLSCAASGFTFGANDMGWYRQAPGKERELVATISSSGGTTYYADSVKGRFTISRDNAKNTVYLQMNSLKPEDTAVYYCAAKGLFTGRVSRYADDHCGQGTQVTVSS
  polyreactivity (PSR sort gate): low polyreactivity

## QVQLVESGRGLVRAGGSLPFSCAASAGNFMRYAMGWYRQAPGKERELVAAITANGGSTYYADSVKGRFTISRDNAKNTVYLQMNSLKPEDTAVYYCNADTGVRSYRRDYWGQGSQVTVSS
  polyreactivity (PSR sort gate): low polyreactivity

## QVQLVESGGGLVQAGGSLRLSCASSGSIFNYNSMGGYRQAPGKERELVAGITTSGGSTYYADSVKGRFTISRDNAKNTVYLQMNSLKPEDTAVYYCAGYDYISSTYFLDDFWGQGSQVTVSS
  polyreactivity (PSR sort gate): low polyreactivity

## QVQLVESGGGLVQAGGSLRLSCAASGRIFTSYAMGWYRQAPGKERELVAAITSGGRTYYADSVKGRFTISRDNAKNTVYLQKNSLKAEDTAVYYCNAPRYLRYNYCGQGTQVTVSS
  polyreactivity (PSR sort gate): high polyreactivity

## QVQLVESGGGLVQAGGSLRLSCAASGSIFPYYALGWYRQAPGKERELVAAISWSGTSTYYADSVKGRFTISRDNAKNTVYLQMNSLKPEDTAVYYCNAGYYHFYASGYDYWGQGTQVTVSS
  polyreactivity (PSR sort gate): low polyreactivity

## QVQLVESGGGLVQAGGSLRLSSAASVIIFSNNAMGWSRQAPGKERELVAAISRSGGSTYYADSLKGRFTISRDNAKNTVYLQMNSLKPEETAVYYCAARARSRYDSWGQGTQVTVSS
  polyreactivity (PSR sort gate): low polyreactivity

## QVQLVESGGGLVQAGGSLRLSCAASGTTFRANAMGWYRQAPAKERELVAAITSGGSTNYADSVKGRFTISRDNAKNTVYLQMNSLKPEDTAVYYCAKETYYGTDNFGQVGGEMDYWGQGNQVTVSS
  polyreactivity (PSR sort gate): low polyreactivity

## QVQLVESGGGLVQAGGSLRLSCAASGFIFWLYAMGWYRKAPVKESELVAAISWSDGSTYYADSVKGRFTISRDNAKNSVYLQMNCLKREDTAVYYCNTVRVHGFPIDRIYDYWGQGTQVTVSS
  polyreactivity (PSR sort gate): high polyreactivity

## QVQLVESGGGLVQAGGSLRLSCAASGRIFGYYAMGWYRQAPGKERELVAAIRYSSGRTYYADSVKGRFTISRDNAKNNVYLQMNSLKPEDTAVYYCNAGYLFLRSYPHDYWGQGTQVTVSS
  polyreactivity (PSR sort gate): high polyreactivity
